The values that follow come from patent publication US20180127493A1.

The target in test [1] is Human TNFα N-his trimers (human) (UniProt P01375). The experiment in a line: SPR, BIAcore T100, His-tagged human TNFα trimers captured on NTA chip, scFv as analyte.
For test [2], the target named is recombinant human VEGF165 (PeproTech EC Ltd.) (human) (UniProt P15692). The test is described as follows: SPR, BIAcore T100, hVEGF165 amine-coupled on CM4 chip, scFv as analyte.
For test [3], the target named is VEGF (as used in the VEGFR competition ELISA). The experiment in a line: competition ELISA, VEGF binding to hVEGFR1; ratio to reference Luc.
VEGF (as used in the VEGFR competition ELISA), sequence (P15692 whole entry): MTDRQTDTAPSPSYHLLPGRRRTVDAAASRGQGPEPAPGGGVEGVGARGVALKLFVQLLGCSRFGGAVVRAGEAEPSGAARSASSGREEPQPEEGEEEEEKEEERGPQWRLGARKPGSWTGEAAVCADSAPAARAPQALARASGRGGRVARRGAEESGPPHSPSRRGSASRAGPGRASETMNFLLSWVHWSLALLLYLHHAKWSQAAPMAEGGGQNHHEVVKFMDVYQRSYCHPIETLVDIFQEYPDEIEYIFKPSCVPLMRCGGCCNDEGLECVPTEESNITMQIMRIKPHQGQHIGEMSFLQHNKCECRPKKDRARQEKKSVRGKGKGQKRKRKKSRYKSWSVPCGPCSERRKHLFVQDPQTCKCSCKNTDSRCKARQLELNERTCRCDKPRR

recombinant human VEGF165 (PeproTech EC Ltd.) (human), sequence (P15692 other isoform, or with tags, fused parts or gaps limits assumed): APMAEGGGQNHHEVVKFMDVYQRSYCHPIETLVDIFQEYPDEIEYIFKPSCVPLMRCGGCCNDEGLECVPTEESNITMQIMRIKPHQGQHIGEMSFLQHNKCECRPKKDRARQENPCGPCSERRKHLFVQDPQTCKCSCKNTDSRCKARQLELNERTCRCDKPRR
Human TNFα N-his trimers (human), sequence (P01375 77-233 limits assumed): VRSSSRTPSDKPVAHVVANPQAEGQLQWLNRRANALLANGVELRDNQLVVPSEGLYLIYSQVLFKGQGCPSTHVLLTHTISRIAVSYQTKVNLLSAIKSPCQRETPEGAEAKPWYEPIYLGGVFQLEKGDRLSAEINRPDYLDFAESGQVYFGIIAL

B1: EP43_min (scFv)
scFv: EIVMTQSPSTLSASVGDRVIITCQASQSISDWLAWYQQKPGKAPKLLIYGASRLASGVPSRFSGSGSGAEFTLTISSLQPDDFATYYCQQGWSDSYVDNLFGQGTKLTVLGGGGGSGGGGSGGGGSGGGGSEVQLVESGGGLVQPGGSLRLSCAASGFSLSSGAMSWVRQAPGKGLEWVSVIISSGATYYASWAKGRFTISRDNSKNTLYLQMNSLRAEDTAVYYCAKGGPDDSNSMGTFDPWGQGTLVTVSS
In the case of B1, the Kd in test [1] is 5540 nM.

B2: 578-max (scFv, from a related filing, part only)
scFv: EIVMTQSPSTLSASVGDRVIITCQASEIIHSWLAWYQQKPGKAPKLLIYLASTLASGVPSRFSGSGSGTQFTLTISSLQPDDFATYYCQNVYLASTNGANFGQGTKLTVLGGGGGSGGGGSGGGGSGGGGSEVQLVESGGGLVQPGGSLRLSCTASGFSLTDYYYMTWVRQAPGKGLEWVGFIDPDDDPYYATWAKGRFTISRDTSKNTVYLQMNSLRAEDTAVYYCAGGDHNSGWGLDIWGQGTLVTVSS
As for B2, in test [2], the Kd turned out to be 0.439 nM, the koff is 0.000307 s⁻¹ and the kon turned out to be 700000 M⁻¹ s⁻¹.

B3: 511-max (scFv, from a related filing, part only)
scFv: EIVMTQSPSTLSASVGDRVIITCQASQSINIWLSWYQQKPGKAPKLLIYRASTLASGVPSRFSGSGSGTEFTLTISSLQPDDFATYYCQANYAYSAGYGAAFGQGTKLTVLGGGGGSGGGGSGGGGSGGGGSEVQLVESGGGLVQPGGSLRLSCTVSGFSLNTYYMNWVRQAPGKGLEWVGIIAPDDTTYYASWAKSRSTISRDTSKNTVYLQMNSLRAEDTAVYYCARSGDTTAWGADIWGQGTLVTVSS
Take B3: in test [2], the Kd is 0.0667 nM, the koff came to 4.4e-05 s⁻¹ and the association rate constant (kon) was determined as 659000 M⁻¹ s⁻¹. In addition, in test [3], the Rel. activity hVEGR1 comp. ELISA (EC50Luc [nM]/EC50test [nM]) worked out at 8.
